The target of this assay is mouse G-CSF (mGCSF, R&D Systems Cat#414-CS) (mouse) (UniProt P09920). As to the kind of experiment: cell-based or functional assay.

Experimental findings from patent US20140056882A1 are described below.

Sequence of UniProt P09920 (P09920 31-208 limits assumed): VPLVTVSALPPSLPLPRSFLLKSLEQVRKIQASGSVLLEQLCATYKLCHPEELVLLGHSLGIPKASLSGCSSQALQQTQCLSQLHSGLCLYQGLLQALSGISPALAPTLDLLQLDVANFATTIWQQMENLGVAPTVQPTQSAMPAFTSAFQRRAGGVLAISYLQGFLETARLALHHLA

“R&D Systems antibody MAB414 (rat anti-mouse G-CSF monoclonal antibody, clone 67604)”: the IC50, inhibition of mG-CSF proliferation of hG-CSFR BaF3 cells (MTS reduction) turned out to be 0.01 nM.
Take “soluble hG-CSFR-Fc protein (from UniProt Q99062 25-332) (Fc fusion)”: the IC50, inhibition of mG-CSF proliferation of hG-CSFR BaF3 cells (MTS reduction) is 0.022 nM.
